Laboratory results published in US20220177605A1 (University of Washington, published 2022).

What was measured:
[1] = biological target: T1, CA-14 bound to cannabidiol (CA-14-CBD complex) (non-covalently bound cannabidiol (CBD); AviTag biotinylated by BirA where immobilised (ELISA)); assay: BLI (Octet RED96), biotinylated DB on streptavidin sensor, 1 uM CA-14 pre-equilibrated with CBD
T1 construct: Same polypeptide as m1, pre-equilibrated with the small molecule cannabidiol; also called CBD-CA-14 complex; not shown: C-terminal AviTag and His tag
Description: (§1) With the purified DB nanobodies in hand, we first sought to determine their binding affinities to the CA-14-CBD. CBD might directly bind to selected dimerization binders, which can affect the affinity measurement. To rule out this possibility, the four nanobodies were biotinylated (FIG. 7c) and immobilized on streptavidin biosensors, and the interaction with CBD was detected by BL1. Only minimal binding between CBD and the dimerization binders was detected (data not shown). Moreover, the binding-dissociation dynamics of the CA-14-CBD complex can also affect the measurement of dimerization binder affinities. To address this, the affinity was measured by a BLI assay in which the biosensor-immobilized dimerization binders were interacted with CA-14 pre-equilibrated with varied concentrations of CBD (FIG. 9a). The concentrations of the CA-14-CBD complex in equilibrium were calculated based on input CA-14 and CBD concentrations. The CA-14-CBD complex concentration was approximated to be constant because only a minimal fraction of the complex bound to the biosensor tips during the BLI assay. It was confirmed that CA-14 only interacts with the dimerization binders in the presence of CBD (FIG. 3a).
The nanobody binding kinetics was analyzed using an Octet™ RED96 system (ForteBio) and Streptavidin (SA) or Super Streptavidin (SSA) biosensors. For the anchor-binder analysis, 200 nM biotinylated anchor binders were immobilized on SSA biosensors with a binding assay buffer (1×PBS, pH 7.4, 0.05% Tween 20, 0.2% BSA, 3% methanol; Note: because CBD and THC were dissolved in methanol to make stock solutions, 3% methanol was added to the buffer to fairly compare samples and controls). Serial dilutions of CBD and THC were used for the anchor binder assays. Dissociation constants (KDS) of anchor binder-ligand interactions were calculated based on a steady-state analysis using Octet™ RED96 data analysis software.

[2] = biological target: T1, CA-14 bound to cannabidiol (CA-14-CBD …); assay: BLI; biotinylated DB-18 on streptavidin biosensors, analyte CA-14 pre-equilibrated with CBD; value printed in the scheme of ternary complex formation
Description: as §1, with “It was confirmed that CA-14 only interacts with the dimerization binders in the presence of CBD (FIG. 3a).” left out
The nanobody binding kinetics was analyzed using an Octet™ RED96 system (ForteBio) and Streptavidin (SA) or Super Streptavidin (SSA) biosensors. […] Dissociation constants (KDS) of anchor binder-ligand interactions were calculated based on a steady-state analysis using Octet™ RED96 data analysis software.

| Binder | Kd [1] [nM] | koff [1] [s⁻¹] | kon [1] [M⁻¹ s⁻¹] | Kd [2] [nM] |
| --- | --- | --- | --- | --- |
| dimerization binder DB-6 (VHH, AviTag biotinylated by BirA (BLI), Purified, tagged and biotinylated in BLI; not shown: C-terminal AviTag and His tag (purified form)) VHH: EVQLQASGGGFVQPGGSLRLSCAASGRFSWGEEMGWFRQAPGKEREFVSAISWAATPWQYYADSVKGRFTISRDNSKNTVYLQMNSLRAEDTATYYCADEWHIGHVSYWGQGTQVTVSS | 19000 | 0.182 | 9600 |  |
| dimerization binder DB-21 (VHH, AviTag biotinylated by BirA (BLI), Purified and tagged in BLI (biotinylated) and SEC; the form used in the sandwich ELISA-like assay is not clearly stated (same id used for all); not shown: C-terminal AviTag and His tag (purified form)) VHH: EVQLQASGGGFVQPGGSLRLSCAASGTTYGQTNMGWFRQAPGKEREFVSAISGLQGRDLYYADSVKGRFTISRDNSKNTVYLQMNSLRAEDTATYYCAFHDFLRMWEYWGQGTQVTVSS | 56.4 | 0.000617 | 11000 |  |
| dimerization binder DB-11 (VHH, AviTag biotinylated by BirA (BLI), Purified, tagged and biotinylated in BLI; not shown: C-terminal AviTag and His tag (purified form)) VHH: EVQLQASGGGFVQPGGSLRLSCAASGTTSDNDTMGWFRQAPGKEREFVSAISWNGGRDEYYADSVKGRFTISRDNSKNTVYLQMNSLRAEDTATYYCAYQDNRSWQEYWGQGTQVTVSS | 1380 | 0.084 | 61000 |  |
| dimerization binder DB-18 (VHH, AviTag biotinylated by BirA (BLI), Purified and tagged in BLI (biotinylated) and SEC; also called 1DB-18; not shown: C-terminal AviTag and His tag (purified form)) VHH: EVQLQASGGGFVQPGGSLRLSCAASGGYSRADDMGWFRQAPGKEREFVSAISFGETDSFYYADSVKGRFTISRDNSKNTVYLQMNSLRAEDTATYYCAYHNYTNMFEYWGQGTQVTVSS | 553 | 0.0227 | 41000 | 553 |
